According to PMC3636572:

Tests used:
porcine thrombin = porcine thrombin (pig, UniProt Q19AZ8;Q19AZ8 316-364;365-623); assay: filter binding
prothrombin [1] = biological target: T1, prothrombin (Homo sapiens, UniProt P00734 44-622); assay: filter binding
beta-thrombin = beta-thrombin (UniProt P00734;P00734;P00734 328-363;364-425;437-622); assay: filter binding
prothrombin [2] = biological target: T1, prothrombin; assay: SPR

B1: RNAR9D-14T (XNA)
RNA: GGCGGUCGAUCACACAGUUCAAACGUAAUAAGCCAAUGUACGAGGCAGACGACUCGCC
modifications: 2'-fluoro on all C and U; purines 2'-OH
For B1, the Kd (porcine thrombin) was 5 nM, the Kd (prothrombin [1]) was 10 nM and the Kd (beta-thrombin) was 20 nM.

B2: biotin-RNAR9D-14T (XNA)
RNA: B1 RNA
modifications: 2'-fluoro on all C and U; purines 2'-OH
Binder B2 has a Kd (prothrombin [2]) of 1.4 nM.
